From patent publication US20150010495A1

Target: […]n, n = 5 (100-mer), non-glycosylated (human)
Assay: peptide ELISA, OD 492 nm; limit of the class, member by Table 2; reference: 20-mer

Sequence of […]n, n = 5 (100-mer), non-glycosylated (human) (peptide, as listed by the source): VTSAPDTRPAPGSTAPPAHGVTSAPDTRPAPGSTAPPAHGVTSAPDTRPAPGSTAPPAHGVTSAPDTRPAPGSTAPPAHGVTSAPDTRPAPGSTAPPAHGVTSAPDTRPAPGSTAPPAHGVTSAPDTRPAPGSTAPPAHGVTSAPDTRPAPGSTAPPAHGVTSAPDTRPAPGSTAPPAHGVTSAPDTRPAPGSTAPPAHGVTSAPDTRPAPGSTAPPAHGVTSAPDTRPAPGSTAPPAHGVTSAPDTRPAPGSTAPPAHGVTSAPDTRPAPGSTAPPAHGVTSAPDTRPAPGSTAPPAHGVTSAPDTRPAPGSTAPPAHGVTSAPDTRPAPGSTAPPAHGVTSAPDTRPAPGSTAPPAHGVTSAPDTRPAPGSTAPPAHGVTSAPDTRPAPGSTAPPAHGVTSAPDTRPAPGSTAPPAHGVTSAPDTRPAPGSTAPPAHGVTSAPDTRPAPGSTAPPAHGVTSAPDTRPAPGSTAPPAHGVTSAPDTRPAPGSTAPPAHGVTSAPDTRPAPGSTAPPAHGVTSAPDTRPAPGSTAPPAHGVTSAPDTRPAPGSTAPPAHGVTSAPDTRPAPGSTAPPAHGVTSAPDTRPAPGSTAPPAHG

| ratio of the optical density 100-mer/20-mer | Substance |
| --- | --- |
| < 1.5 | C595 (antibody) |
| 1.5 to 3 | 214D4 (antibody) |

Second part, the substance before the results:

| Substance | ratio of the optical density 100-mer/20-mer |
| --- | --- |
| E29 (antibody) | 1.5 to 3 |
| B27.29 (antibody) | 1.5 to 3 |
| BC2 (antibody) | > 3 |
